*1 amine or outer side, *2 acyl side, *3 side chain or, on linkers, in order; H or OH if unused. Where no end group is shown, it is not given here. Side-chain parts run from the residue outwards. [ ]: non-standard residue; d: D form. The star is where a group is joined. C18 diacid = O=C(O)CCCCCCCCCCCCCCCCC(=O)*; γGlu = O=C(O)[C@H](CCC(=O)[*:2])N[*:1]; Aib = CC(C)(N)C(=O)O
Assay: Physical stability via ThT, fibril formation (ASSAY IVc)
Format: physicochemical
Parameters: key to Aggregation (fibrillation, ThT): FD = Fibrillation Detected; FND = Fibrillation Not Detected
Conditions: for Aggregation (fibrillation, ThT): 40° C. 4 days
Description: Samples were prepared in a total volume of 0.5 mL API (herein e.g. CPD1) stock solutions were prepared by dissolving API in demineralised water at ambient temperature (typically 25° C.) to achieve 5 and 25 mg/mL API, respectively. 8 working solutions were prepared: 1) 40 mM phosphate pH 6 and 80 μM ThT; 2) 40 mM phosphate pH 6.5 and 80 μM ThT; 3) 40 mM phosphate pH 7 and 80 μM ThT; 4) 40 mM phosphate pH 8 and 80 μM ThT; 5) 40 mM phosphate pH 6, 540 mM mannitol and 80 μM ThT; 6) 40 mM phosphate pH 6.5, 540 mM mannitol and 80 μM ThT; 7) 40 mM phosphate pH 7, 540 mM mannitol and 80 μM ThT; and 8) 40 mM phosphate pH 8, 540 mM mannitol and 80 μM ThT.
200 μL of API stock was mixed with 250 μL working solution, pH was measured and adjusted to target, followed by adding demineralised water to a final volume of 500 μL. Samples were loaded in a 96-well black fluorescence plate (clear bottom) in triplicate 3×150 μL. Data were collected at fixed intervals of 10 min, each preceded by 300 s of automixing (agitation), over a period of 96 hours at 40° C. Physical stability, expressed as lag-time of fibril formation (in hours), was defined as the intersection between two linear regressions representing the initial stable phase and the growth phase.

Substance: CPD1: any form of the compound comprising SEQ ID NO: 1 (CPD1OH or CPD1NH2 and any pharmaceutically acceptable salt thereof) (H-H[Aib]EGSFTSELATILDK([γGlu-C18 diacid])QAARDFIAWLIQHKITD; also: C-terminal acid or amide, both forms, salts)
- Aggregation (fibrillation, ThT) (2 mg/mL CPD1, 20 mM phosphate pH 6, 270 mM mannitol): FD
- Aggregation (fibrillation, ThT) (2 mg/mL CPD1, 20 mM phosphate pH 6, no added tonicity agent): FD
- Aggregation (fibrillation, ThT) (2 mg/mL CPD1, 20 mM phosphate pH 6.5, 270 mM mannitol): FND
- Aggregation (fibrillation, ThT) (2 mg/mL CPD1, 20 mM phosphate pH 6.5, no added tonicity agent): FND
- Aggregation (fibrillation, ThT) (2 mg/mL CPD1, 20 mM phosphate pH 7, 270 mM mannitol): FND
- Aggregation (fibrillation, ThT) (2 mg/mL CPD1, 20 mM phosphate pH 7, no added tonicity agent): FND
- Aggregation (fibrillation, ThT) (2 mg/mL CPD1, 20 mM phosphate pH 8, 270 mM mannitol): FND
- Aggregation (fibrillation, ThT) (2 mg/mL CPD1, 20 mM phosphate pH 8, no added tonicity agent): FND
- Aggregation (fibrillation, ThT) (10 mg/mL CPD1, 20 mM phosphate pH 6, 270 mM mannitol): FD
- Aggregation (fibrillation, ThT) (10 mg/mL CPD1, 20 mM phosphate pH 6, no added tonicity agent): FD
- Aggregation (fibrillation, ThT) (10 mg/mL CPD1, 20 mM phosphate pH 6.5, 270 mM mannitol): FND
- Aggregation (fibrillation, ThT) (10 mg/mL CPD1, 20 mM phosphate pH 6.5, no added tonicity agent): FND
- Aggregation (fibrillation, ThT) (10 mg/mL CPD1, 20 mM phosphate pH 7, 270 mM mannitol): FND
- Aggregation (fibrillation, ThT) (10 mg/mL CPD1, 20 mM phosphate pH 7, no added tonicity agent): FND
- Aggregation (fibrillation, ThT) (10 mg/mL CPD1, 20 mM phosphate pH 8, 270 mM mannitol): FND
- Aggregation (fibrillation, ThT) (10 mg/mL CPD1, 20 mM phosphate pH 8, no added tonicity agent): FND
- Amyloid formation / fibrillation (2 and 10 mg/mL CPD1, pH 6): amyloid formation was observed
- Amyloid formation / fibrillation (2 and 10 mg/mL CPD1, pH 7 or 8): no fibrillation was observed
- Aggregation propensity, mannitol as tonicity agent compared to control (no tonicity agent) (pH range 6-8, 40° C. 4 days): No difference

From patent US20220202704A1, “PHARMACEUTICAL PARENTERAL COMPOSITION OF DUAL GLP1/2 AGONIST” (Zealand Pharma A/S, priority 2019, published 2022)
